Measured values from patent US20120220489A1.

What was measured:
[1] = biological target: ERK1 (p42) active (phospho), human, Active Motif 31 152 (human) (UniProt P27361); test: RPA, competition: +free pErk1/2 peptide 10 nM
[2] = biological target: ERK1 (p44) active (GST tagged), human, Invitrogen PV 3311 (human) (UniProt P27361); test: RPA, competition: +free pErk1/2 peptide 10 nM
[3] = biological target: ERK1 (p44) inactive (GST tagged), human, Invitrogen PV 3312 (human) (UniProt P27361); test: RPA, competition: +free pErk1/2 peptide 10 nM
[4] = biological target: ERK1 (p44), human, Cell Signaling Technology 7416 (human) (UniProt P27361); test: RPA, competition: +free pErk1/2 peptide 10 nM
[5] = biological target: ERK2 (p42), human, Biosource PHO 0104 (human) (UniProt P28482); test: RPA, competition: +free pErk1/2 peptide 10 nM
[6] = biological target: Erk1-BSA 2.7x peptide-protein conjugate (human; bovine); test: RPA, competition: +free pErk1/2 peptide 10 nM
[7] = biological target: Histone H3 recombinant protein, calf, Roche 11 034 758 001 (calf) (UniProt P68432); test: RPA, competition: +free pErk1/2 peptide 10 nM
[8] = biological target: Histone H3 recombinant protein, human, Upstate 14-494 (human) (UniProt P68431); test: RPA, competition: +free pErk1/2 peptide 10 nM
[9] = biological target: Histone H3-BSA 2.7x peptide-protein conjugate (bovine); test: RPA, competition: +free pErk1/2 peptide 10 nM
[10] = biological target: pErk1/2-BSA 2.7x peptide-protein conjugate (human; bovine); test: RPA, competition: +free pErk1/2 peptide 10 nM
[11] = biological target: pRb recombinant protein, human, Active Motif 31 128 (human) (UniProt P06400); test: RPA, competition: +free pErk1/2 peptide 10 nM
[12] = biological target: pRb-BSA 1x peptide-protein conjugate (bovine); test: RPA, competition: +free pErk1/2 peptide 10 nM
[13] = biological target: ERK1 (p42) active (phospho), human, Active Motif 31 152 (human) (UniProt P27361); test: RPA, competition: +free pErk1/2 peptide 100 nM
[14] = biological target: ERK1 (p44) active (GST tagged), human, Invitrogen PV 3311 (human) (UniProt P27361); test: RPA, competition: +free pErk1/2 peptide 100 nM
[15] = biological target: ERK1 (p44) inactive (GST tagged), human, Invitrogen PV 3312 (human) (UniProt P27361); test: RPA, competition: +free pErk1/2 peptide 100 nM
[16] = biological target: ERK1 (p44), human, Cell Signaling Technology 7416 (human) (UniProt P27361); test: RPA, competition: +free pErk1/2 peptide 100 nM
[17] = biological target: ERK2 (p42), human, Biosource PHO 0104 (human) (UniProt P28482); test: RPA, competition: +free pErk1/2 peptide 100 nM
[18] = biological target: Erk1-BSA 2.7x peptide-protein conjugate (human; bovine); test: RPA, competition: +free pErk1/2 peptide 100 nM
[19] = biological target: Histone H3 recombinant protein, calf, Roche 11 034 758 001 (calf) (UniProt P68432); test: RPA, competition: +free pErk1/2 peptide 100 nM
[20] = biological target: Histone H3 recombinant protein, human, Upstate 14-494 (human) (UniProt P68431); test: RPA, competition: +free pErk1/2 peptide 100 nM
[21] = biological target: Histone H3-BSA 2.7x peptide-protein conjugate (bovine); test: RPA, competition: +free pErk1/2 peptide 100 nM
[22] = biological target: pErk1/2-BSA 2.7x peptide-protein conjugate (human; bovine); test: RPA, competition: +free pErk1/2 peptide 100 nM
[23] = biological target: pRb recombinant protein, human, Active Motif 31 128 (human) (UniProt P06400); test: RPA, competition: +free pErk1/2 peptide 100 nM
[24] = biological target: pRb-BSA 1x peptide-protein conjugate (bovine); test: RPA, competition: +free pErk1/2 peptide 100 nM
[25] = biological target: ERK1 (p44) inactive (GST tagged), human, Invitrogen PV 3312 (human) (UniProt P27361); test: RPA, competition: +free pErk1/2 peptide 1000 nM
[26] = biological target: ERK1 (p44), human, Cell Signaling Technology 7416 (human) (UniProt P27361); test: RPA, competition: +free pErk1/2 peptide 1000 nM
[27] = biological target: Histone H3 recombinant protein, human, Upstate 14-494 (human) (UniProt P68431); test: RPA, competition: +free pErk1/2 peptide 1000 nM
[28] = biological target: pErk1/2-BSA 2.7x peptide-protein conjugate (human; bovine); test: RPA, competition: +free pErk1/2 peptide 1000 nM
[29] = biological target: pRb-BSA 1x peptide-protein conjugate (bovine); test: RPA, competition: +free pErk1/2 peptide 1000 nM
[30] = biological target: pErk1/2-BSA 2.7x peptide-protein conjugate (human; bovine); test: RPA, 8 point dilution series of the peptide standard in buffer, assay 1
[31] = biological target: ERK1 (p44) active (GST tagged), human, Invitrogen PV 3311 (human) (UniProt P27361); test: RPA, competition: +free H3 peptide 1000 nM
[32] = biological target: ERK1 (p44), human, Cell Signaling Technology 7416 (human) (UniProt P27361); test: RPA, competition: +free H3 peptide 1000 nM
[33] = biological target: ERK2 (p42), human, Biosource PHO 0104 (human) (UniProt P28482); test: RPA, competition: +free H3 peptide 1000 nM
[34] = biological target: pErk1/2-BSA 2.7x peptide-protein conjugate (human; bovine); test: RPA, competition: +free H3 peptide 1000 nM
[35] = biological target: pRb recombinant protein, human, Active Motif 31 128 (human) (UniProt P06400); test: RPA, competition: +free H3 peptide 1000 nM

Sequence of UniProt P06400 (P06400 whole entry): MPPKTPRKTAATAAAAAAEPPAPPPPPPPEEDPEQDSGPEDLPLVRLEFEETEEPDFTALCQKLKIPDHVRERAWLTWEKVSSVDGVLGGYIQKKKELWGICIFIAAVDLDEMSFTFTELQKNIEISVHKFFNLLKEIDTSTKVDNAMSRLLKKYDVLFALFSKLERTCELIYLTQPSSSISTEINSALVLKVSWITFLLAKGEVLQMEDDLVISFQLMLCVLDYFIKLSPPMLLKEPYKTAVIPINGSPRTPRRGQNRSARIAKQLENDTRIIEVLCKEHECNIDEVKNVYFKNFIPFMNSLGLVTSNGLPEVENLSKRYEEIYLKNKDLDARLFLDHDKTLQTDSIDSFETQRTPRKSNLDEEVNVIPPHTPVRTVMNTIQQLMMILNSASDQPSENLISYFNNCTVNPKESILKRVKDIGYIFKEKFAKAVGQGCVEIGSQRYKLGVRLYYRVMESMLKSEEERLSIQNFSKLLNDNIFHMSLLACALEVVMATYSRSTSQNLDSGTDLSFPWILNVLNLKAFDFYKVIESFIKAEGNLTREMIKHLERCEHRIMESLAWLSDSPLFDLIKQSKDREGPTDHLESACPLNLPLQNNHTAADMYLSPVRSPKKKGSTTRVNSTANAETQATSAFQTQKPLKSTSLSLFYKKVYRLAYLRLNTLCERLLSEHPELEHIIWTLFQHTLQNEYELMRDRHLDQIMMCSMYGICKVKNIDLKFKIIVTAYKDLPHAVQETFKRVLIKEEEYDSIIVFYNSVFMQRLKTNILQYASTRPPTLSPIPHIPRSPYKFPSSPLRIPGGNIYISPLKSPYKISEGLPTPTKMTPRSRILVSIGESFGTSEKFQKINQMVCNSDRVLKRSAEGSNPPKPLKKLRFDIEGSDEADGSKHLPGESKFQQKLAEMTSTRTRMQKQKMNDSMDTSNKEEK
Sequence of pRb-BSA 1x peptide-protein conjugate (bovine) (P02769 25-607 limits assumed): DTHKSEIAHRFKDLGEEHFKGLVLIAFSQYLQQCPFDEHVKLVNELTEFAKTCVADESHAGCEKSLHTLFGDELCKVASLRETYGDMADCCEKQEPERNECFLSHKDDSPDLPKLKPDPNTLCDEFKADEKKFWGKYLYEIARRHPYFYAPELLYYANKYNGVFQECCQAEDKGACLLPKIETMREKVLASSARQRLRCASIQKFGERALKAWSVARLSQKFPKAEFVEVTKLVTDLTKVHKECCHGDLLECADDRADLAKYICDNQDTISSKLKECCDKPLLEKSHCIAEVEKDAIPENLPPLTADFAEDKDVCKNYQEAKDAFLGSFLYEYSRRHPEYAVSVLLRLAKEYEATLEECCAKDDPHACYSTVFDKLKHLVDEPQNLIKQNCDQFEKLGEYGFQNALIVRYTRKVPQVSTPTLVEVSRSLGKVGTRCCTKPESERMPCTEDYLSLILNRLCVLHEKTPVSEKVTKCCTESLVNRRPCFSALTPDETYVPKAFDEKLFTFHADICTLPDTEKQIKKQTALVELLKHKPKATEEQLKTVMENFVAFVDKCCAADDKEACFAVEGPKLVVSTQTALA
Sequence of pErk1/2-BSA 2.7x peptide-protein conjugate (human; bovine) (P02769 25-607 limits assumed): as above
Sequence of UniProt P28482 (P28482 2-360 limits assumed): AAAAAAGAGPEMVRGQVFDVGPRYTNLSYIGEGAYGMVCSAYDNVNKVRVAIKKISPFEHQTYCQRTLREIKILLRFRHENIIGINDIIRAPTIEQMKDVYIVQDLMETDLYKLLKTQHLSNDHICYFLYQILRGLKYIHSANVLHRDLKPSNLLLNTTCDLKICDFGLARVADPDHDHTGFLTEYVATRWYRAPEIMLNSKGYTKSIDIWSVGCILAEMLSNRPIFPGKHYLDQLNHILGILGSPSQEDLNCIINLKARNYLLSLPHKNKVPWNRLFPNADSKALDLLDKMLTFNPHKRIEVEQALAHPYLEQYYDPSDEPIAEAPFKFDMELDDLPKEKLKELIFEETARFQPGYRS
Sequence of Erk1-BSA 2.7x peptide-protein conjugate (human; bovine) (peptide, as listed by the source limits assumed, chain 1 of 2): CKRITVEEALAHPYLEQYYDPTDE
Sequence of Erk1-BSA 2.7x peptide-protein conjugate (human; bovine) (P02769 25-607 limits assumed, chain 2 of 2): as the sequence (P02769 25-607 limits assumed) above
Sequence of Histone H3-BSA 2.7x peptide-protein conjugate (bovine) (P02769 25-607 limits assumed): as above

p44/42 MAPK phospho (pERK1/2) Thr202/Tyr204 antibody, Cell Signaling Technology #9101
0.45 RFI: maximum standard curve signal [22]
0.1 RFI: maximum standard curve signal [9] | maximum standard curve signal [21] | maximum standard curve signal [28]
0.02 RFI: maximum standard curve signal [18]
0.01 RFI: maximum standard curve signal [1] | maximum standard curve signal [3] | maximum standard curve signal [4] | maximum standard curve signal [5] | maximum standard curve signal [6] | maximum standard curve signal [7] | maximum standard curve signal [8] | maximum standard curve signal [11] | maximum standard curve signal [12] | maximum standard curve signal [13] | maximum standard curve signal [14] | maximum standard curve signal [15] | maximum standard curve signal [17] | maximum standard curve signal [19] | maximum standard curve signal [23] | maximum standard curve signal [24] | maximum standard curve signal [25] | maximum standard curve signal [27] | maximum standard curve signal [29]
< 0.01 RFI: maximum standard curve signal [16] | maximum standard curve signal [20] | maximum standard curve signal [26]
1.05 RFI: maximum standard curve signal [10]
0.05 RFI: maximum standard curve signal [2]

p44/42 MAPK (Erk1/2) antibody, Biosource 44-654G
0.01 RFI: mean signal (standard curve) [30]

Histone H3 antibody, Abcam ab1791
< 0.01 RFI: maximum standard curve signal [31] | maximum standard curve signal [32] | maximum standard curve signal [33] | maximum standard curve signal [34] | maximum standard curve signal [35]
